From PMC9110858

Legend:
IL-2 (Homo sapiens) = IL-2 (Homo sapiens) (UniProt P60568); conditions: cited from earlier work
IL-15 (Homo sapiens) = IL-15 (Homo sapiens) (UniProt P40933); conditions: cited from earlier work
[1] = target: trimeric IL-15Rα/IL-2Rβ/γc receptor on Kit225 cells (human (endogenous in Kit225)) (UniProt Q13261)

Chain of UniProt P40933 (P40933 49-162): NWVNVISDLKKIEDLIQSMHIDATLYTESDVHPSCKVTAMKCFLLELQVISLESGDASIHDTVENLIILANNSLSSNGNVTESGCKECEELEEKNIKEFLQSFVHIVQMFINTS
Chain of UniProt P60568 (P60568 21-153): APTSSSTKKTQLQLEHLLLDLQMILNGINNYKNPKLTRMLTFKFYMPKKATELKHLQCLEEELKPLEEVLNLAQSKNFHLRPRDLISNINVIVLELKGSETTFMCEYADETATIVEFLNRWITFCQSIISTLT

In the case of IL-2Rα (from UniProt P01589), the Kd (IL-2 (Homo sapiens)) is listed as 10 nM.
In the case of IL-15Rα (from UniProt Q13261), the Kd (IL-15 (Homo sapiens)) is listed as 0.05 nM.
With “NANTIL-15 (New ANTagonist of IL-15), human IL-15 L45D-N65K-L69R linked to a human Fc (IgG1) (Fc fusion)” the IC50 of inhibition of IL-15- or IL-15D8S-induced Kit225 cell proliferation by increasing NANTIL-15 [1] was < 1 nM, the IC50 of inhibition of IL-15-induced Stat5 phosphorylation in Kit225 cells by increasing NANTIL-15 (blocks IL-15 acting through the trimeric IL-15Rα/IL-2Rβ/γc receptor) [1] was 1 nM and the IC50 of inhibition of IL-15D8S-induced pStat5 signal in Kit225 cells by increasing NANTIL-15 (IL-15D8S signals only through the trimeric receptor) [1] was 1 nM. It also gave a plateau of inhibition of IL-15-induced Stat5 phosphorylation in Kit225 cells by increasing NANTIL-15 [1] of 60%.
